Assay results reported in publication doi:10.1101/2025.08.25.672245.

Columns and labels:
[1] = molecular target: firefly luciferase Fluc^K378C-K496C (Fluc^CDS1, C-terminal domain sensor) (firefly) [luciferase: P08659]; test: single-molecule FRET within the labelled client
[2] = molecular target: firefly luciferase Fluc^A12C-K329C (Fluc^NDS1, N-terminal domain sensor) (firefly) [luciferase: P08659]; test: single-molecule FRET within the labelled client

**Q.** What does the source list for “DnaK (bacterial Hsp70) (from UniProt P0A6Y8 1-638) (natural protein)”?
**A.** percent of the time DnaK-bound (FRET < 0.3) after 15 min [1]: 15%; percent of the time DnaK-bound (FRET < 0.3) after 15 min [2]: 15%
